Measured values published in patent publication US20200095590A1, “TRANSCRIPTION SYSTEM” (AUTOLUS LIMITED, priority 2016, published 2020).

B1: EOMES: Eomesodermin transcription factor (SEQ ID No. 11), co-expressed with anti-CD19 CAR in T cells (protein, UniProt O95936 1-686, looked up)
Eomesodermin homolog: MQLGEQLLVSSVNLPGAHFYPLESARGGSGGSAGHLPSAAPSPQKLDLDKASKKFSGSLSCEAVSGEPAAASAGAPAAMLSDTDAGDAFASAAAVAKPGPPDGRKGSPCGEEELPSAAAAAAAAAAAAAATARYSMDSLSSERYYLQSPGPQGSELAAPCSLFPYQAAAGAPHGPVYPAPNGARYPYGSMLPPGGFPAAVCPPGRAQFGPGAGAGSGAGGSSGGGGGPGTYQYSQGAPLYGPYPGAAAAGSCGGLGGLGVPGSGFRAHVYLCNRPLWLKFHRHQTEMIITKQGRRMFPFLSFNINGLNPTAHYNVFVEVVLADPNHWRFQGGKWVTCGKADNNMQGNKMYVHPESPNTGSHWMRQEISFGKLKLTNNKGANNNNTQMIVLQSLHKYQPRLHIVEVTEDGVEDLNEPSKTQTFTFSETQFIAVTAYQNTDITQLKIDHNPFAKGFRDNYDSSHQIVPGGRYGVQSFFPEPFVNTLPQARYYNGERTVPQTNGLLSPQQSEEVANPPQRWLVTPVQQPGTNKLDISSYESEYTSSTLLPYGIKSLPLQTSHALGYYPDPTFPAMAGWGGRGSYQRKMAAGLPWTSRTSPTVFSEDQLSKEKVKEEIGSSWIETPPSIKSLDSNDSGVYTSACKRRRLSPSNSSNENSPSIKCEDINAEEYSKDTSKGMGGYYAFYTTP
modifications: co-expressed with anti-CD19 CAR
B2: FOXO1: Forkhead box protein O1 transcription factor (SEQ ID No. 12), co-expressed with anti-CD19 CAR in T cells (protein, listed as Homo sapiens)
chain: MAEAPQVVEIDPDFEPLPRPRSCTWPLPRPEFSQSNSATSSPAPSGSAAANPDAAAGLPSASAAAVSADFMSNLSLLEESEDFPQAPGSVAAAVAAAAAAAATGGLCGDFQGPEAGCLHPAPPQPPPPGPLSQHPPVPPAAAGPLAGQPRKSSSSRRNAWGNLSYADLITKAIESSAEKRLTLSQIYEWMVKSVPYFKDKGDSNSSAGWKNSIRHNLSLHSKFIRVQNEGTGKSSWWMLNPEGGKSGKSPRRRAASMDNNSKFAKSRSRAAKKKASLQSGQEGAGDSPGSQFSKWPASPGSHSNDDFDNWSTFRPRTSSNASTISGRLSPIMTEQDDLGEGDVHSMVYPPSAAKMASTLPSLSEISNPENMENLLDNLNLLSSPTSLTVSTQSSPGTMMQQTPCYSFAPPNTSLNSPSPNYQKYTYGQSSMSPLPQMPIQTLQDNKSSYGGMSQYNCAPGLLKELLTSDSPPHNDIMTPVDPGVAQPNSRVLGQNVMMGPNSVMSTYGSQASHNKMMNPSSHTHPGHAQQTSAVNGRPLPHTVSTMPHTSGMNRLTQVKTPVQVPLPHPMQMSALGGYSSVSSCNGYGRMGLLHQEKLPSDLDGMFIERLDCDMESIIRNDLMDGDTLDFNFDNVLPNQSFPHSVKTTTHSWVSG

Experiments:
[1] = system: T cells; assay: Phenotype assay: memory markers by flow cytometry on CAR-TF T cells after co-culture with CD19 positive SKOV3 target cells; type: cell-based; conditions: for proportion of naive and central memory cells (CM): co-expressed with anti-CD19 CAR (HD37), day 0 (post-transduction) and day 7 (6 days after 24 hour co-culture), CD4+ and CD8+ subpopulations; for CD62L expression / CD27 expression: co-expressed with CAR (HD37)
Source text: A bicistronic construct was expressed in BW5 T cells as a single transcript which self-cleaves at the 2A site to yield a chimeric antigen receptor (CAR); and a transcription factor (TF). Control constructs were also generated which lack the 2A site and the transcription factor (“CAR-only”) or lack the CAR and 2A site (“TF-only”).
The CAR was an anti-CD19 CAR comprising an endodomain derived from CD3 zeta and from the co-stimulatory receptor 41BB.
T cells expressing the various CAR-TF combinations, together with the relevant CAR-only and TF-only controls were co-cultured with CD19 positive SKOV3 target cells for 24 hours before recovering and culturing the T cells until day 7. The expression of the following memory markers was analysed by flow cytometry at day 0 of the co-culture and day 7, to see whether cells expressing factors that bias them towards central memory are more nave post-transduction and remain more nave upon stimulation with antigen-bearing target cells.
Memory Markers—CCR7, CD45RA, CD62L, CD27
The cells were gated on CAR-expression (via RQR8 transduction marker) and various T cell and T-cell subset markers (CD3 and CD8) depending on the sub-population of interest.

[2] = molecular target: streptavidin (Streptomyces avidinii, UniProt P22629); conditions: biotin mimicking peptide binding streptavidin; read-out: affinity; cited from earlier work
streptavidin, sequence (P22629 25-183): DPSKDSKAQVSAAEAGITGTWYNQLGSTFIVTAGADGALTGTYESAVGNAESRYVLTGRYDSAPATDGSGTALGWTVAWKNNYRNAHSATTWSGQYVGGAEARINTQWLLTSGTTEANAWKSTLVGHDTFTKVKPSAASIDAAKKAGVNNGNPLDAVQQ

[3] = 6 days after a 24 hour co-culture with target cells, CD4+ and CD8+ T cells

Molecule | proportion of naive and central memory cells (CM) [1] | Kd [2] | other results
BACH2 S520A: mutant Bach2 with S to A substitution at position 520 (SEQ ID No. 9), co-expressed with anti-CD19 CAR | increase in the proportion of nave and central memory cells (CM) |  | 
BACH2: Bach2 wild type transcription factor (SEQ ID No. 8), co-expressed with anti-CD19 CAR in T cells | increase in the proportion of nave and central memory cells (CM) |  | 
Runx3 and CBFbeta: transcription factors Runx3 (SEQ ID No. 13) and CBF beta (SEQ ID No. 22), co-expressed with anti-CD19 CAR in T cells |  |  | CD62L expression ([1]; after transduction (day 0) and 6 days after the 24 hour co-culture): upregulation of CD62L
biotin mimicking peptide CHPQGPPC (SEQ ID NO: 31) [ccstreptag] |  | 230 nM | 
biotin mimicking peptide DVEAWLDERVPLVET (SEQ ID NO: 26) (Biotin mimicking peptide, long nanotag) |  | 3.6 nM | 
biotin mimicking peptide DVEAWLGAR (SEQ ID NO: 27) (Biotin mimicking peptide, short nanotag) |  | 17 nM | 
biotin mimicking peptide WSHPQFEK (SEQ ID NO: 29) [streptagII] |  | 72000 nM | 
B1 |  |  | CD27 expression [1, 3]: significant upregulation of CD27; CD62L expression [1, 3]: do not show significant up-regulation of CD62L
B2 | greater proportion of nave and central memory cells (CM) |  | CD27 expression [1, 3]: upregulation of CD27, especially on CD8+ cells; CD62L expression [1, 3]: significant upregulation of CD62L
